This experiment addresses T1, WT RBD (Wuhan SARS-CoV-2 RBD) (Severe acute respiratory syndrome …, UniProt P0DTC2).
T1 construct: also called Wuhan RBD; native RBD
Description: crystal structure. The conditions noted are these: both partners purified.

B1: EY6A Fab (Fab, V domains shown)
VH: EVQLVESGGGVVQPGRSLRLSCAASAFTFSSYDMHWVRQAPGKGLEWVAVISYDGSNKYYADSVKGRFTISRDNSKNTLYLQMNSLRAEDTAVYYCAKDGGKLWVYYFDYWGQGTLVTVSS
VL: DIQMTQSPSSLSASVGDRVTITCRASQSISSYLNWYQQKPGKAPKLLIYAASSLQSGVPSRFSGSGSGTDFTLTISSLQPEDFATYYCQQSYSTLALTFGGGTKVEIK
B1: the binding result is on record as “binds”.

The values are drawn from article PMC8008340 (Cell, 2021).
